Data as given in paper PMC9482650, “Quantitative fragmentomics allow affinity mapping of interactomes” (Nature Communications, 2022).

What was measured:
Experiment in all cases: holdup assay
Parameters in all cases: key: below the threshold = too weak to quantify, mostly under pKd 3.1 to 4
LNX2_3, Q8N448 = biological target: T1, LNX2_3, Q8N448
T1 sequence (Q8N448 463-564, limits assumed, looked up): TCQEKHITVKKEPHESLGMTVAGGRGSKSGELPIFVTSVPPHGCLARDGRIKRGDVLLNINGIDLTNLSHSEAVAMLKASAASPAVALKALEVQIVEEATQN

MPDZ_12, O75970 = biological target: T2, MPDZ_12, O75970
T2 sequence (O75970 1857-1958, limits assumed, looked up): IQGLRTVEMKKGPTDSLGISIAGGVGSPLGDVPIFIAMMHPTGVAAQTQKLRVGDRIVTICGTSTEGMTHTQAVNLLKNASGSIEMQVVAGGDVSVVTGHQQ

DFNB31_3, Q9P202 = biological target: T3, DFNB31_3, Q9P202
T3 sequence (Q9P202 811-907, limits assumed, looked up): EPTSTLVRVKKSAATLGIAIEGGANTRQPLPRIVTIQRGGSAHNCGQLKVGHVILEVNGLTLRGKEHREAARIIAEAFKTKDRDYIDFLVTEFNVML

GRIP1_2, Q9Y3R0 = biological target: T4, GRIP1_2, Q9Y3R0
T4 sequence (Q9Y3R0 145-248, limits assumed, looked up): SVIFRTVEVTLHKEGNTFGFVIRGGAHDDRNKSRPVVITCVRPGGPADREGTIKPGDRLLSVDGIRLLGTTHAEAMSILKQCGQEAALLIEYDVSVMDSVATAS

GRIP1_7, Q9Y3R0 = biological target: T5, GRIP1_7, Q9Y3R0
T5 sequence (Q9Y3R0 999-1096, limits assumed, looked up): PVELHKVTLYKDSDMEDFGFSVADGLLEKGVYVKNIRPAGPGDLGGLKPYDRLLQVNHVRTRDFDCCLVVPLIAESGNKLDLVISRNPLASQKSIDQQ

SNTB1, Q13884 = biological target: T6, SNTB1, Q13884
T6 sequence (Q13884 107-205, limits assumed, looked up): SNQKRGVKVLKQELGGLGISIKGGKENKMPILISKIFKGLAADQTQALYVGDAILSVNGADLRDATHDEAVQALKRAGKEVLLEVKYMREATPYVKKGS

NHERF3_4, Q5T2W1 = biological target: T7, NHERF3_4, Q5T2W1
T7 sequence (Q5T2W1 373-468, limits assumed, looked up): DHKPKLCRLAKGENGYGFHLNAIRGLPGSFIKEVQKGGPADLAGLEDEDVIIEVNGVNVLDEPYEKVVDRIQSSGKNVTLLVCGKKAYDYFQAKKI

PARD3B_1, Q8TEW8 = biological target: T8, PARD3B_1, Q8TEW8
T8 sequence (Q8TEW8 196-299, limits assumed, looked up): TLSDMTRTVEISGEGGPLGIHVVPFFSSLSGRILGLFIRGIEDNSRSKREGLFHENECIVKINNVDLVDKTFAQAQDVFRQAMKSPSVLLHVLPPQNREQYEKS

DLG4_2, P78352 = biological target: DLG4_2, P78352
MPDZ_10, O75970 = biological target: T9, MPDZ_10, O75970
T9 sequence (O75970 1624-1722, limits assumed, looked up): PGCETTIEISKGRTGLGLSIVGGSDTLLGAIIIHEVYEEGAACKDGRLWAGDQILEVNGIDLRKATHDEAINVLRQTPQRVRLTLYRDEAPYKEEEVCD

FRMPD2_1, Q68DX3 = biological target: FRMPD2_1, Q68DX3
ARHGEF11, O15085 = biological target: T10, ARHGEF11, O15085
T10 sequence (O15085 42-136, limits assumed, looked up): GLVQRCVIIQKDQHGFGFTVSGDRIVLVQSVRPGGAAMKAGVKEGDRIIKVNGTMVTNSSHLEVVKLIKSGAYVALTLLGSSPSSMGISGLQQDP

ARHGAP21, Q5T5U3 = biological target: T11, ARHGAP21, Q5T5U3
T11 sequence (Q5T5U3 45-169, limits assumed, looked up): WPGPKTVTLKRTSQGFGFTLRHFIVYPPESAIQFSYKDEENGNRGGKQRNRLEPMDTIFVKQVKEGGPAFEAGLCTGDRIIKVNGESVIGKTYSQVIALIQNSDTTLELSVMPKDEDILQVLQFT

IL16_4, Q14005 = biological target: IL16_4, Q14005
MAST1, Q9Y2H9 = biological target: MAST1, Q9Y2H9
IL16_3, Q14005 = biological target: IL16_3, Q14005
PCLO, Q9Y6V0 = biological target: T12, PCLO, Q9Y6V0
T12 sequence (Q9Y6V0 4491-4600, limits assumed, looked up): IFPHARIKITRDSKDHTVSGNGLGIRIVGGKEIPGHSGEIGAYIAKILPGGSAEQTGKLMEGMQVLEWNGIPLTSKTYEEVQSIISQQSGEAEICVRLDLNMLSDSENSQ

LNX1_3, Q8TBB1 = biological target: LNX1_3, Q8TBB1
Inadl_3, Q8NI35 = biological target: Inadl_3, Q8NI35
SIPA1L2, Q9P2F8 = biological target: T13, SIPA1L2, Q9P2F8
T13 sequence (Q9P2F8 945-1036, limits assumed, looked up): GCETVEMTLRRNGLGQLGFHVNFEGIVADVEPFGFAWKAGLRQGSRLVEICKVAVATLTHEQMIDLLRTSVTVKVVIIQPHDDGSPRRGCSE

GRIP2_5, Q9C0E4 = biological target: GRIP2_5, Q9C0E4
MAGI2_3, Q86UL8 = biological target: MAGI2_3, Q86UL8
MAGI2_6, Q86UL8 = biological target: MAGI2_6, Q86UL8
LAP2, Q96RT1 = biological target: LAP2, Q96RT1
[1] = plain residues with an end cap or a label only (N-terminal biotin on a linker: ahx)
[2] = plain residues with an end cap or a label only (N-terminal biotin on a linker: ado-ado)

Measured: pKd

Sequence of GRIP2_5, Q9C0E4 (Q9C0E4 544-642): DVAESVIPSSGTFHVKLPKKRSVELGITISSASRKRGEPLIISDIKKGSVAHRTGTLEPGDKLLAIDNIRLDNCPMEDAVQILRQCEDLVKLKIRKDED
Sequence of LAP2, Q96RT1 (Q96RT1 other isoform, or with tags, fused parts or gaps): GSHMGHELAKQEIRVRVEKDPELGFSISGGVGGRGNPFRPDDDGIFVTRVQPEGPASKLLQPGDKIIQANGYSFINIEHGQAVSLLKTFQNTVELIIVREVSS
Sequence of MAGI2_6, Q86UL8 (Q86UL8 1141-1229): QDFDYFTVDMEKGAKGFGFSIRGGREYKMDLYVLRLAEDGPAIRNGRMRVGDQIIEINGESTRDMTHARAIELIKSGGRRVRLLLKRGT
Sequence of DLG4_2, P78352 (P78352 155-259): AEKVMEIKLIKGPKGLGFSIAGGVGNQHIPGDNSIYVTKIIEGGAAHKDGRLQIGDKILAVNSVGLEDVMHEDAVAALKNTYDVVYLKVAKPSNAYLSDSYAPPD
Sequence of MAGI2_3, Q86UL8 (Q86UL8 600-682): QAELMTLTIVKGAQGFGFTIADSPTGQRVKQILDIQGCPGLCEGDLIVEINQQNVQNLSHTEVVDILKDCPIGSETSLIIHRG
Sequence of IL16_4, Q14005 (Q14005 1229-1329): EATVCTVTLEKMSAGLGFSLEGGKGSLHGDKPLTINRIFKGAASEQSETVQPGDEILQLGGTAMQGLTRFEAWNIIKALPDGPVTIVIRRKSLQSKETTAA
Sequence of FRMPD2_1, Q68DX3 (Q68DX3 770-861): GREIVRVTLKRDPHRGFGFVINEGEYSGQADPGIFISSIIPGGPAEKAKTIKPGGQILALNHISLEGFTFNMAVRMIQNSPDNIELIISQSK
Sequence of IL16_3, Q14005 (Q14005 1107-1207): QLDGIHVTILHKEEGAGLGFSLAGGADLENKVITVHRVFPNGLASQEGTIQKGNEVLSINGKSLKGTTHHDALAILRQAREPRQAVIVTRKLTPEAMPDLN
Sequence of LNX1_3, Q8TBB1 (Q8TBB1 500-596): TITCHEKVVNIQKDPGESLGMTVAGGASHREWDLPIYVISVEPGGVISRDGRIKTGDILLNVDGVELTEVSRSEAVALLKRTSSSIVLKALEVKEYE
Sequence of MAST1, Q9Y2H9 (Q9Y2H9 962-1065): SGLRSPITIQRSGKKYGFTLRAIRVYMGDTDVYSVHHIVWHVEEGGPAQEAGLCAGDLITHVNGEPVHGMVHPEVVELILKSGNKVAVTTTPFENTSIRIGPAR
Sequence of Inadl_3, Q8NI35 (Q8NI35 359-469): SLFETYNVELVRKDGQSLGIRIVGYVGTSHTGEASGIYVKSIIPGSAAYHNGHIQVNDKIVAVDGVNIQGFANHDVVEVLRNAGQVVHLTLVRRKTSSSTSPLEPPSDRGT

QNTDDVQTSF [ACE2, Q9BYF1]
4.6: MAST1, Q9Y2H9; [1]
3.64: ARHGAP21, Q5T5U3; [1]
3.57: NHERF3_4, Q5T2W1; [1]
3.82: PARD3B_1, Q8TEW8; [1]
below the threshold: LNX2_3, Q8N448; [1] | MPDZ_12, O75970; [1] | DFNB31_3, Q9P202; [1] | GRIP1_2, Q9Y3R0; [1] | GRIP1_7, Q9Y3R0; [1] | SNTB1, Q13884; [1] | DLG4_2, P78352; [1] | MPDZ_10, O75970; [1] | FRMPD2_1, Q68DX3; [1] | ARHGEF11, O15085; [1] | IL16_4, Q14005; [1] | IL16_3, Q14005; [1] | PCLO, Q9Y6V0; [1] | LNX1_3, Q8TBB1; [1] | SIPA1L2, Q9P2F8; [1] | GRIP2_5, Q9C0E4; [1] | MAGI2_3, Q86UL8; [1] | MAGI2_6, Q86UL8; [1] | LAP2, Q96RT1; [1]
3.66: Inadl_3, Q8NI35; [1]

AQRARSPSDV [GPR12, P47775]
3.7: MAGI2_3, Q86UL8; [2]
3.59: DFNB31_3, Q9P202; [2]
3.92: DLG4_2, P78352; [2]
below the threshold: LNX2_3, Q8N448; [2] | MPDZ_12, O75970; [2] | GRIP1_2, Q9Y3R0; [2] | GRIP1_7, Q9Y3R0; [2] | SNTB1, Q13884; [2] | NHERF3_4, Q5T2W1; [2] | PARD3B_1, Q8TEW8; [2] | FRMPD2_1, Q68DX3; [2] | ARHGEF11, O15085; [2] | ARHGAP21, Q5T5U3; [2] | IL16_4, Q14005; [2] | MAST1, Q9Y2H9; [2] | IL16_3, Q14005; [2] | PCLO, Q9Y6V0; [2] | LNX1_3, Q8TBB1; [2] | Inadl_3, Q8NI35; [2] | SIPA1L2, Q9P2F8; [2] | GRIP2_5, Q9C0E4; [2] | MAGI2_6, Q86UL8; [2]
3.51: LAP2, Q96RT1; [2]
4.09: MPDZ_10, O75970; [2]

KKMLQRRTLL [OR8G1, Q15617]
3.64: SNTB1, Q13884; [2]
3.81: DLG4_2, P78352; [2]
4.64: NHERF3_4, Q5T2W1; [2]
4.47: PARD3B_1, Q8TEW8; [2]
3.89: ARHGEF11, O15085; [2]
4.41: MAST1, Q9Y2H9; [2]
below the threshold: LNX2_3, Q8N448; [2] | MPDZ_12, O75970; [2] | GRIP1_2, Q9Y3R0; [2] | GRIP1_7, Q9Y3R0; [2] | MPDZ_10, O75970; [2] | FRMPD2_1, Q68DX3; [2] | ARHGAP21, Q5T5U3; [2] | IL16_4, Q14005; [2] | IL16_3, Q14005; [2] | PCLO, Q9Y6V0; [2] | LNX1_3, Q8TBB1; [2] | Inadl_3, Q8NI35; [2] | SIPA1L2, Q9P2F8; [2] | GRIP2_5, Q9C0E4; [2] | MAGI2_3, Q86UL8; [2] | MAGI2_6, Q86UL8; [2] | LAP2, Q96RT1; [2]
4.08: DFNB31_3, Q9P202; [2]
